Laboratory results from the Human Domainome abundance scans (Beltran et al. 2025).
± gives the uncertainty stated by the source.

B1: Advillin, residues 785 to 819; numbered along this chain, O75366 (parent)
chain: LSEQDFVSVFGITRGQFAALPGWKQLQMKKEKGLF

Variants of: B1
Experiment: abundance fitness (aPCA) (normalised: wild type 0, dead -1); higher = more abundant; growth selection in yeast, the domain comes from the species named
Details: Homo sapiens
With LSEQDFVSVFGITRGQFAFLPGWKQLQMKKEKGLF [A19F] the abundance fitness was -0.245 ± 0.26. LSEQDFVSVFGITRGQFASLPGWKQLQMKKEKGLF [A19S] showed an abundance fitness of -0.068 ± 0.078. For LSEQDFVSVFGITRGQFAQLPGWKQLQMKKEKGLF [A19Q], the abundance fitness was -0.367 ± 0.14. In the case of LSEQDFVSVFGITRGQFAMLPGWKQLQMKKEKGLF [A19M], the abundance fitness is reported as -0.174 ± 0.096. For LSEQDFVSVFGITRGQFADLPGWKQLQMKKEKGLF [A19D], the abundance fitness was -0.068 ± 0.13. Work on LSEQDFVSVFGITRGQFACLPGWKQLQMKKEKGLF [A19C] yielded an abundance fitness of -0.209 ± 0.16. Variant LSEQDFVSVFGIGRGQFAALPGWKQLQMKKEKGLF [T13G] has an abundance fitness of -0.382 ± 0.055. For LSEQDFVSVFGICRGQFAALPGWKQLQMKKEKGLF [T13C], the abundance fitness was -0.255 ± 0.12. In the case of LSEQDFVSVFGIKRGQFAALPGWKQLQMKKEKGLF [T13K], the abundance fitness is reported as -0.314 ± 0.086. LSEQDFVSVFGIIRGQFAALPGWKQLQMKKEKGLF [T13I] gave an abundance fitness of -0.475 ± 0.32. For LSEQDFVSVFGILRGQFAALPGWKQLQMKKEKGLF [T13L], the abundance fitness was -0.619 ± 0.14. For LSEQDFVSVFGIARGQFAALPGWKQLQMKKEKGLF [T13A], the abundance fitness was -0.397 ± 0.058. With LSEQDFVSVFGIVRGQFAALPGWKQLQMKKEKGLF [T13V] the abundance fitness was -0.53 ± 0.08. In the case of LSEQDFVSVFGIDRGQFAALPGWKQLQMKKEKGLF [T13D], the abundance fitness is reported as -0.265 ± 0.062. In the case of LSEQDFVSVFGIERGQFAALPGWKQLQMKKEKGLF [T13E], the abundance fitness is reported as -0.101 ± 0.08. Work on LSEQDFVSVFGIFRGQFAALPGWKQLQMKKEKGLF [T13F] yielded an abundance fitness of -0.368 ± 0.2. For LSEQDFVSVFGINRGQFAALPGWKQLQMKKEKGLF [T13N], the abundance fitness was -0.26 ± 0.084. In the case of LSEQDFVSVFGIQRGQFAALPGWKQLQMKKEKGLF [T13Q], the abundance fitness is reported as -0.871 ± 0.13. LSEQDFVSVFGIMRGQFAALPGWKQLQMKKEKGLF [T13M] gave an abundance fitness of -0.369 ± 0.14. In the case of LSEQDFVSVFGIYRGQFAALPGWKQLQMKKEKGLF [T13Y], the abundance fitness is reported as -0.017 ± 0.26. Variant LSEQDFVSVFGIPRGQFAALPGWKQLQMKKEKGLF [T13P] has an abundance fitness of -0.219 ± 0.11. For LSEQDFVSVFGISRGQFAALPGWKQLQMKKEKGLF [T13S], the abundance fitness was -0.199 ± 0.08. For LSEQDFVSVFGITRGQPAALPGWKQLQMKKEKGLF [F17P], the abundance fitness was -0.631 ± 0.11. In the case of LSEQDFVSVFGITRGQGAALPGWKQLQMKKEKGLF [F17G], the abundance fitness is reported as -0.37 ± 0.055. For LSEQDFVSVFGITRGQRAALPGWKQLQMKKEKGLF [F17R], the abundance fitness was -0.554 ± 0.058. With LSEQDFVSVFGITRGQTAALPGWKQLQMKKEKGLF [F17T] the abundance fitness was -0.486 ± 0.12. For LSEQDFVSVFGITRGQLAALPGWKQLQMKKEKGLF [F17L], the abundance fitness was -0.476 ± 0.082. With LSEQDFVSVFGITRGQVAALPGWKQLQMKKEKGLF [F17V] the abundance fitness was -0.396 ± 0.072. LSEQDFVSVFGITRGQSAALPGWKQLQMKKEKGLF [F17S] gave an abundance fitness of -0.454 ± 0.058. In the case of LSEQDFVSVFGITRGQKAALPGWKQLQMKKEKGLF [F17K], the abundance fitness is reported as -0.479 ± 0.078. With LSEQDFVSVFGITRGQIAALPGWKQLQMKKEKGLF [F17I] the abundance fitness was -0.538 ± 0.12. Variant LSEQDFVSVFGITRGQAAALPGWKQLQMKKEKGLF [F17A] has an abundance fitness of -0.389 ± 0.059. Work on LSEQDFVSVFGITRGQYAALPGWKQLQMKKEKGLF [F17Y] yielded an abundance fitness of -0.969 ± 0.14. Variant LSEQDFVSVFGITRGQEAALPGWKQLQMKKEKGLF [F17E] has an abundance fitness of -0.33 ± 0.07. Work on LSEQDFVSVFGITRGQMAALPGWKQLQMKKEKGLF [F17M] yielded an abundance fitness of -0.249 ± 0.081. For LSEQDFVSVFGITRGQCAALPGWKQLQMKKEKGLF [F17C], the abundance fitness was -0.435 ± 0.14. Variant LSEQDFVSVFGITRGQQAALPGWKQLQMKKEKGLF [F17Q] has an abundance fitness of -0.344 ± 0.18. LSEQDFVSVFGITRGQWAALPGWKQLQMKKEKGLF [F17W] showed an abundance fitness of -0.441 ± 0.08. LSEQDFVSVFGITRGQHAALPGWKQLQMKKEKGLF [F17H] showed an abundance fitness of -0.965 ± 0.22. For LSEQDFVSVFGITRGQFRALPGWKQLQMKKEKGLF [A18R], the abundance fitness was -0.197 ± 0.067. LSEQDFVSVFGITRGQFIALPGWKQLQMKKEKGLF [A18I] gave an abundance fitness of -0.1 ± 0.1. LSEQDFVSVFGITRGQFEALPGWKQLQMKKEKGLF [A18E] gave an abundance fitness of 0.214 ± 0.063. LSEQDFVSVFGITRGQFLALPGWKQLQMKKEKGLF [A18L] showed an abundance fitness of -0.062 ± 0.078. Work on LSEQDFVSVFGITRGQFQALPGWKQLQMKKEKGLF [A18Q] yielded an abundance fitness of -0.05 ± 0.1. LSEQDFVSVFGITRGQFWALPGWKQLQMKKEKGLF [A18W] showed an abundance fitness of -0.358 ± 0.088. Work on LSEQDFVSVFGITRGQFCALPGWKQLQMKKEKGLF [A18C] yielded an abundance fitness of -0.079 ± 0.09. LSEQDFVSVFGITRGQFHALPGWKQLQMKKEKGLF [A18H] gave an abundance fitness of -0.362 ± 0.19. LSEQDFVSVFGITRGQFSALPGWKQLQMKKEKGLF [A18S] showed an abundance fitness of -0.201 ± 0.065. LSEQDFVSVFGITRGQFPALPGWKQLQMKKEKGLF [A18P] showed an abundance fitness of -0.438 ± 0.16. With LSEQDFVSVFGITRGQFKALPGWKQLQMKKEKGLF [A18K] the abundance fitness was 0.188 ± 0.12. In the case of LSEQDFVSVFGITRGQFGALPGWKQLQMKKEKGLF [A18G], the abundance fitness is reported as -0.103 ± 0.059. LSEQDFVSVFGITRGQFNALPGWKQLQMKKEKGLF [A18N] showed an abundance fitness of 0.154 ± 0.1. LSEQDFVSVFGITRGQFMALPGWKQLQMKKEKGLF [A18M] showed an abundance fitness of -0.3 ± 0.48. Variant LSEQDFVSVFGITRTQFAALPGWKQLQMKKEKGLF [G15T] has an abundance fitness of -0.052 ± 0.063. LSEQDFVSVFGITREQFAALPGWKQLQMKKEKGLF [G15E] showed an abundance fitness of 0.238 ± 0.064. LSEQDFVSVFGITRSQFAALPGWKQLQMKKEKGLF [G15S] gave an abundance fitness of 0.203 ± 0.071. With LSEQDFVSVFGITRNQFAALPGWKQLQMKKEKGLF [G15N] the abundance fitness was -0.05 ± 0.11. With LSEQDFVSVFGITRRQFAALPGWKQLQMKKEKGLF [G15R] the abundance fitness was -0.089 ± 0.048. Variant LSEQDFVSVFGITRPQFAALPGWKQLQMKKEKGLF [G15P] has an abundance fitness of -0.413 ± 0.1. Work on LSEQDFVSVFGITRFQFAALPGWKQLQMKKEKGLF [G15F] yielded an abundance fitness of -0.193 ± 0.083. With LSEQDFVSVFGITRKQFAALPGWKQLQMKKEKGLF [G15K] the abundance fitness was 0.15 ± 0.065. Variant LSEQDFVSVFGITRVQFAALPGWKQLQMKKEKGLF [G15V] has an abundance fitness of -0.077 ± 0.061. LSEQDFVSVFGITRHQFAALPGWKQLQMKKEKGLF [G15H] showed an abundance fitness of 0.008 ± 0.11. Variant LSEQDFVSVFGITRAQFAALPGWKQLQMKKEKGLF [G15A] has an abundance fitness of 0.16 ± 0.052. In the case of LSEQDFVSVFGITRWQFAALPGWKQLQMKKEKGLF [G15W], the abundance fitness is reported as -0.395 ± 0.07. Variant LSEQDFVSVFGITRIQFAALPGWKQLQMKKEKGLF [G15I] has an abundance fitness of 0.042 ± 0.076. Work on LSEQDFVSVFGITRQQFAALPGWKQLQMKKEKGLF [G15Q] yielded an abundance fitness of 0.11 ± 0.083. Work on LSEQDFVSVFGITRDQFAALPGWKQLQMKKEKGLF [G15D] yielded an abundance fitness of 0.009 ± 0.093. Work on LSEQDFVSVFGITRCQFAALPGWKQLQMKKEKGLF [G15C] yielded an abundance fitness of -0.152 ± 0.1. Variant LSEQDFVSVFGITRLQFAALPGWKQLQMKKEKGLF [G15L] has an abundance fitness of -0.215 ± 0.069.
